Measured values from article PMC5345129.
Values belong to the molecule of their own block, whether it stands above or below them.

Columns and labels:
[1] = target: myc-tagged, constitutively active Gα12 (GTPase-deficient Q229L mutant) (UniProt P27600); test: GST co-precipitation (pull-down), immunoblot bands quantified with ImageJ; conditions: parent: 100; read off a plot
[2] = target: GST-fusion of the RH domain of LARG (leukemia-associated RhoGEF); test: GST co-precipitation (pull-down) from HEK293 cell extracts, immunoblot bands quantified with ImageJ; conditions: parent: est. 100; read off a plot
[3] = target: GST-fusion of the 257-amino acid C-terminus of AKAP-Lbc; test: as above; conditions: parent: est. 100; read off a plot
[4] = target: GST-fusion of the 257-amino acid region of p114RhoGEF corresponding to the Gα12-binding region of AKAP-Lbc; test: as above; conditions: parent: est. 100; read off a plot
[5] = target: GST-fusion of the 257-amino acid C-terminus of AKAP-Lbc (human); test: pull-down; GST fusion proteins bound to Glutathione Sepharose 4B; Gα variants from high-speed supernatants of transfected HEK293 cells, detergent diluted to 0.05% polyoxyethylene-10-lauryl ether; 50 mM HEPES pH 7.5, 1 mM EDTA, 3 mM dithiothreitol, 10 mM MgSO4; 2 h at 4°C; three washes; immunoblot (anti-Gα12, anti-myc or anti-EGFP); 5% of the extract kept as load
Chain of GST-fusion of the 257-amino acid C-terminus of AKAP-Lbc (human) (Q12802 whole entry, the tested form may be a part): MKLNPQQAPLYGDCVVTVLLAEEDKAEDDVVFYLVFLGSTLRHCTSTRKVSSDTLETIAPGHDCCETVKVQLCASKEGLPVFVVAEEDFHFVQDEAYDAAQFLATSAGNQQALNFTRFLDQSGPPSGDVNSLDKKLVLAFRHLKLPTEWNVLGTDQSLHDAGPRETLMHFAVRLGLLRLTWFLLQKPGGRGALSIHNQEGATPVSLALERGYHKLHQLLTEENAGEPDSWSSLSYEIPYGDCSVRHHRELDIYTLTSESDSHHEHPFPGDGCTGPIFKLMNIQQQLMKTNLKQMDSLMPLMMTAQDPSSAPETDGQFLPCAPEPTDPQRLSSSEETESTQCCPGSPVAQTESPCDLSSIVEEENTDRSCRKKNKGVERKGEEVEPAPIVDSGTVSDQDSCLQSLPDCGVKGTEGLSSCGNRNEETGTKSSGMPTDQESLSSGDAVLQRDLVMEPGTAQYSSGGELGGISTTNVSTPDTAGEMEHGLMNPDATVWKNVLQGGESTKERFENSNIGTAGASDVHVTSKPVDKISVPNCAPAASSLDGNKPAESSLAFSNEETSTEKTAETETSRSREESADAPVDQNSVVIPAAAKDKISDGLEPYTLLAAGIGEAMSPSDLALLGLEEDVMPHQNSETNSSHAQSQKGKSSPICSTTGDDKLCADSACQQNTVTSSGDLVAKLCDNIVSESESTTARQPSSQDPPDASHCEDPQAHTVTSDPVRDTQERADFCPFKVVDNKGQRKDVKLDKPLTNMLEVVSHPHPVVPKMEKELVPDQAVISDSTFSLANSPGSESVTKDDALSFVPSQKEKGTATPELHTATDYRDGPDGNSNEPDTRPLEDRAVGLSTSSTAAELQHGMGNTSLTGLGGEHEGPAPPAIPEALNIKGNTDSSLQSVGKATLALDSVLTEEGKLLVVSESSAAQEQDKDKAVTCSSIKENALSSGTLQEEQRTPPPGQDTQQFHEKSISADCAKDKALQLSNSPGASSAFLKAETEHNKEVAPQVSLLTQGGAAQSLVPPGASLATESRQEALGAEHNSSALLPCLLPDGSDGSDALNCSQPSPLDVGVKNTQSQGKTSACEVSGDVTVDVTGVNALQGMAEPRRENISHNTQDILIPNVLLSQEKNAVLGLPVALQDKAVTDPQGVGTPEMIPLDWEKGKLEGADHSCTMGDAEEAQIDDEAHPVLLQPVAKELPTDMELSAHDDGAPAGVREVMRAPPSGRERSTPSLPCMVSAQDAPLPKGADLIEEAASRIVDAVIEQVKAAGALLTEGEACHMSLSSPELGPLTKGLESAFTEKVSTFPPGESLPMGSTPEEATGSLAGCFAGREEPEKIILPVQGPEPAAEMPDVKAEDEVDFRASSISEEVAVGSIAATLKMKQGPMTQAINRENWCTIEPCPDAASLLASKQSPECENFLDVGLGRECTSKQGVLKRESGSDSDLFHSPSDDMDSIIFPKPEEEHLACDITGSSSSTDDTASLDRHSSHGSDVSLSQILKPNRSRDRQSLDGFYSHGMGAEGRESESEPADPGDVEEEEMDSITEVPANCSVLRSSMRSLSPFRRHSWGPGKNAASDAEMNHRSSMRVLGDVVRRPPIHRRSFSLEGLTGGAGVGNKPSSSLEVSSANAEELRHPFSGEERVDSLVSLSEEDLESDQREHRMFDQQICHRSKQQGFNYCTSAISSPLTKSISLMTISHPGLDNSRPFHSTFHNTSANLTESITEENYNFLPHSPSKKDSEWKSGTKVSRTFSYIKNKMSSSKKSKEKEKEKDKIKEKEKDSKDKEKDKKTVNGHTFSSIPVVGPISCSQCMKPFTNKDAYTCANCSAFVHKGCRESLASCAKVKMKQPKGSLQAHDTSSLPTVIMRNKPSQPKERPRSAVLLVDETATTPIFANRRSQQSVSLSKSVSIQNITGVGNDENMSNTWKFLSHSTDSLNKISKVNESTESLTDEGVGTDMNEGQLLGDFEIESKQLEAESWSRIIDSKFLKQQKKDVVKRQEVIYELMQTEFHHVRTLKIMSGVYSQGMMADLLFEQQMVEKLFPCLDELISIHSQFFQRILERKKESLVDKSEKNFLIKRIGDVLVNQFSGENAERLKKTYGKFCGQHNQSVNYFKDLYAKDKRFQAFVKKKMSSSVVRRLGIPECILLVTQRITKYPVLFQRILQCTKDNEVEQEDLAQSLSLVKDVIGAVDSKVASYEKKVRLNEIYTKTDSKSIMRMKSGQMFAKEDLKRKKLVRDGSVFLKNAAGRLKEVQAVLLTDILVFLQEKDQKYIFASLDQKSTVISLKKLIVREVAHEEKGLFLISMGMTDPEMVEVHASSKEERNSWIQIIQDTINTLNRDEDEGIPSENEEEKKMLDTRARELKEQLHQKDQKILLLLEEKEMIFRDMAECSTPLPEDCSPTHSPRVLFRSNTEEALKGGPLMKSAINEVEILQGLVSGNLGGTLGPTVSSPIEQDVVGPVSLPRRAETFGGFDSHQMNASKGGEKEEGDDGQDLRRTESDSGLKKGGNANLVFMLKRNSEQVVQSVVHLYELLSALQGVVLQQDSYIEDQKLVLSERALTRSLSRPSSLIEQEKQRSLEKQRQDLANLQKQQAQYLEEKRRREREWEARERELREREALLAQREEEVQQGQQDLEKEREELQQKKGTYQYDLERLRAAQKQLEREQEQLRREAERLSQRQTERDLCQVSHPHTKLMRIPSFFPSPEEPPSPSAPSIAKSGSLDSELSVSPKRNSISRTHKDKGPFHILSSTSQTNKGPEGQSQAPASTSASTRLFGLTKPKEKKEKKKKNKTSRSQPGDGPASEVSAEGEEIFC

[6] = target: T1, GST-fusion of the 257-amino acid region of p114RhoGEF corresponding to the Gα12-binding region of AKAP-Lbc (human); test: as above
T1 sequence (Q6ZSZ5 whole entry, looked up): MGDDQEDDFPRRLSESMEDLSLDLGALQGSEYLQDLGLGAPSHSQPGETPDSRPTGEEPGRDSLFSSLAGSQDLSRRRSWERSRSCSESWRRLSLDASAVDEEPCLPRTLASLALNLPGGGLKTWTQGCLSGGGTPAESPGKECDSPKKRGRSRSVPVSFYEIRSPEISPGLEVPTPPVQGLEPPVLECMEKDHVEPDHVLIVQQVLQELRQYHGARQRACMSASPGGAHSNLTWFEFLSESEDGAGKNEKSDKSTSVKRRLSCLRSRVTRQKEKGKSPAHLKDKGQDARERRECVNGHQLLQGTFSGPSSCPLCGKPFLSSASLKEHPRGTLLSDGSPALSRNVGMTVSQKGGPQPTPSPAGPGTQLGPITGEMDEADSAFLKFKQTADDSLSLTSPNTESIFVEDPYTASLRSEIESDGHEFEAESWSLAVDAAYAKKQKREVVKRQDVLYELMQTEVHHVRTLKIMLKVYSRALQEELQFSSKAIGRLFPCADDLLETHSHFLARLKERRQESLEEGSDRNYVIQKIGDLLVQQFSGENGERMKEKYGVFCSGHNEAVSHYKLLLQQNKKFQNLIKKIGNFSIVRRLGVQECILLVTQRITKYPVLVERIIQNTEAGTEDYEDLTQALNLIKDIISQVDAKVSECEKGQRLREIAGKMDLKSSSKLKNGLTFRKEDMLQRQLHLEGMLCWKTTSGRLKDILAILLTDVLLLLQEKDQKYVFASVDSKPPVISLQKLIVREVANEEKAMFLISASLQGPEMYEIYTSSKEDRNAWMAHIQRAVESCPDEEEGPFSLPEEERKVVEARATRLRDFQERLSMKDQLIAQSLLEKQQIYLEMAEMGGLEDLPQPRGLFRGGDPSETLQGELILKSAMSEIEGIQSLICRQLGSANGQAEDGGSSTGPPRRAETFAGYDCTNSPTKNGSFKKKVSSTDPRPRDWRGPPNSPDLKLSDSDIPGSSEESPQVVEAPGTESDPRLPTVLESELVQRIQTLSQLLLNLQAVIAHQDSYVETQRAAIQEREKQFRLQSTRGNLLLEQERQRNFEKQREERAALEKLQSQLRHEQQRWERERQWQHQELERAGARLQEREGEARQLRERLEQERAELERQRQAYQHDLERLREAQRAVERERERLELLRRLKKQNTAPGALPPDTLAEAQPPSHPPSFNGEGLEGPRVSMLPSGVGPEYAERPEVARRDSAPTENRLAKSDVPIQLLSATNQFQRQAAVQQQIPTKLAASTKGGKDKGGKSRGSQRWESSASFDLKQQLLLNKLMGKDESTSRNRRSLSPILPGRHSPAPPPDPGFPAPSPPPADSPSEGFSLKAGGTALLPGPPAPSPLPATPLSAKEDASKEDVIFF

- percent of parent [1]: 33 % of control
Molecule: GST-fusion of the 257-amino acid C-terminus of AKAP-Lbc E2670R

- percent of parent [1]: 42 % of control
Molecule: GST-fusion of the 257-amino acid region of p114RhoGEF corresponding to the Gα12-binding region of AKAP-Lbc E695R

- percent of parent (% of 12QL control) [3]: 105
- percent of parent (% of 12QL control) [4]: 95
- percent of parent (% of 12QL control) [2]: 16
Molecule: myc-tagged, constitutively active Gα12 (GTPase-deficient Q229L mutant) (from UniProt P27600) Δ244-249 (sextet Asn-Ala-Ala-Ile-Arg-Ser in place of native residues 244-249)

More lines, now with the values behind:

Molecule: GST-fusion of the 257-amino acid C-terminus of AKAP-Lbc E2576R
- percent of parent [1]: 29 % of control

Molecule: GST-fusion of the 257-amino acid region of p114RhoGEF corresponding to the Gα12-binding region of AKAP-Lbc E789R
- percent of parent [1]: 37 % of control

Molecule: myc-tagged, constitutively active Gα12 (GTPase-deficient Q229L mutant) (from UniProt P27600) C11A
- percent of parent (% of 12QL control) [2]: 92

B1: myc-tagged, constitutively active Gα12 (Q229L) with C11A substitution (natural protein)
chain: MSGVVRTLSRALLPAEAGARERRAGAARDAEREARRRSRDIDALLARERRAVRRLVKILLLGAGESGKSTFLKQMRIIHGREFDQKALLEFRDTIFDNILKGSRVLVDARDKLGIPWQHSENEKHGMFLMAFENKAGLPVEPATFQLYVPALSALWRDSGIREAFSRRSEFQLGESVKYFLDNLDRIGQLNYFPSKQDILLARKATKGIVEHDFVIKKIPFKMVDVGGLRSQRQKWFQCFDGITSILFMVSSSEYDQVLMEDRRTNRLVESMNIFETIVNNKLFFNVSIILFLNKMDLLVEKVKSVSIKKHFPDFKGDPHRLEDVQRYLVQCFDRKRRNRSKPLFHHFTTAIDTENIRFVFHAVKDTILQENLKDIMLQ
- % loss of binding (co-precipitated Gα12 normalized for starting material, against non-mutated Gα12 Q229L) [5]: 60%
- % loss of binding (co-precipitated Gα12 normalized for starting material, against non-mutated Gα12 Q229L) [6]: 72%
